Results published in patent US6994987B1, “Process for producing tripeptides” (Calpis Co., Ltd., priority 1999, dated 2006).

Legend:
[1] = test system: Aminipeptidase I + Carboxypeptidase Y; assay: Reactivity of peptidase formulations against synthetic peptides: aminopeptidase I + carboxypeptidase Y; assay type: biochemical; conditions: phosphate buffer pH 5.3, 37° C. 3 hours, HPLC
Experimental: (§1) Peptides shown in Table 1 were chemically synthesized. […] All of these synthetic peptides were synthesized with the automatic peptide synthesizing machine PPSM-8 (manufactured by Shimadzu Corporation).
(§2) Each synthetic peptide was dissolved at the concentration of 10 μg/ml in 100 mM phosphate buffer pH 5.3 as to Experiments 1-1 to 1-4, 1-10 to 1-12, 1-16 and 1-21, or in 50 mM Tris-HCl buffer pH 8.0 as to other Experiments. Each of various peptidase formulations shown in Table 1 was then added so that the concentration thereof became 0.01 μg/ml, and the reaction was performed at 37° C. for 3 hours. After the enzyme reaction, the mixture was analyzed by the reverse phase high performance liquid chromatography (HPLC). […] The fractions of the detected peak were collected and amino acid sequence analysis was performed by the automatic peptide analyzer model PPSQ-10 (manufactured by Shimadzu Corporation). […]

[2] = test system: Leucine aminopeptidase, microsomal + Carboxypeptidase Y; assay: Reactivity of peptidase formulations against synthetic peptides: LM + carboxypeptidase Y; assay type: biochemical; conditions: phosphate buffer pH 5.3, 37° C. 3 hours, HPLC
Experimental: as §1, §2

[3] = test system: Leucine aminopeptidase, cytosol + Carboxypeptidase Y; assay: Reactivity of peptidase formulations against synthetic peptides: LC + carboxypeptidase Y; assay type: biochemical; conditions: phosphate buffer pH 5.3, 37° C. 3 hours, HPLC
Experimental: as §1, §2

[4] = test system: Aminopeptidase + Carboxypeptidase Y; assay: Reactivity of peptidase formulations against synthetic peptides: aminopeptidase A + carboxypeptidase Y; assay type: biochemical; conditions: 0.01 μg/ml, peptide 10 μg/ml, phosphate buffer pH 5.3, 37° C. 3 hours, HPLC
Experimental: as §1, §2

Aminipeptidase I = target: T1, Aminipeptidase I (Streptomyces griseus subsp. griseus, UniProt P80561); assay: Reactivity of peptidase formulations against synthetic peptides: aminopeptidase I alone; assay type: biochemical; conditions: no carboxypeptidase, Tris-HCl pH 8.0, 37° C. 3 hours, HPLC
T1 construct: purchased Sigma Chemical Co
Experimental: as §1, §2

[5] = target: T2, Leucine aminopeptidase, cytosol (Sus scrofa, UniProt P28839); assay: Reactivity of peptidase formulations against synthetic peptides: LC alone; assay type: biochemical, porcine; conditions: no carboxypeptidase, Tris-HCl pH 8.0, 37° C. 3 hours, HPLC
T2 construct: purchased Sigma Chemical Co; host or cells: porcine kidney
T2 sequence (P28839 1-519): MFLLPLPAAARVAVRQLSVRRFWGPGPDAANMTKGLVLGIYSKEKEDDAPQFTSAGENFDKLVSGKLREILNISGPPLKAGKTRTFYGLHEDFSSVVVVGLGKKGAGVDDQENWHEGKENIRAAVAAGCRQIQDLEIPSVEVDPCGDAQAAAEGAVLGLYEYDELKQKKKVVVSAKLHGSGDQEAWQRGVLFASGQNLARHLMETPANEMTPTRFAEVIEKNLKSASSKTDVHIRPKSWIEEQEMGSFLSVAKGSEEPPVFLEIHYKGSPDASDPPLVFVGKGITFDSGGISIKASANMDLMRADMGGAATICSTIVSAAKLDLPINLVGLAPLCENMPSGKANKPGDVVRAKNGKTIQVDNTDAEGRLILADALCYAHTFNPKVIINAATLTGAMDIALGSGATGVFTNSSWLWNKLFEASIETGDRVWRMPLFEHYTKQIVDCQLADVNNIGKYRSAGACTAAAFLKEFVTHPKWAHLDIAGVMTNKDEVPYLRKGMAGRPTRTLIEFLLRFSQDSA
Experimental: as §1, §2

[6] = target: T3, Leucine aminopeptidase, microsomal (Sus scrofa, UniProt P15145); assay: Reactivity of peptidase formulations against synthetic peptides: LM alone; assay type: biochemical, porcine; conditions: no carboxypeptidase, Tris-HCl pH 8.0, 37° C. 3 hours, HPLC
T3 construct: purchased Sigma Chemical Co; host or cells: porcine kidney
T3 sequence (P15145 1-963): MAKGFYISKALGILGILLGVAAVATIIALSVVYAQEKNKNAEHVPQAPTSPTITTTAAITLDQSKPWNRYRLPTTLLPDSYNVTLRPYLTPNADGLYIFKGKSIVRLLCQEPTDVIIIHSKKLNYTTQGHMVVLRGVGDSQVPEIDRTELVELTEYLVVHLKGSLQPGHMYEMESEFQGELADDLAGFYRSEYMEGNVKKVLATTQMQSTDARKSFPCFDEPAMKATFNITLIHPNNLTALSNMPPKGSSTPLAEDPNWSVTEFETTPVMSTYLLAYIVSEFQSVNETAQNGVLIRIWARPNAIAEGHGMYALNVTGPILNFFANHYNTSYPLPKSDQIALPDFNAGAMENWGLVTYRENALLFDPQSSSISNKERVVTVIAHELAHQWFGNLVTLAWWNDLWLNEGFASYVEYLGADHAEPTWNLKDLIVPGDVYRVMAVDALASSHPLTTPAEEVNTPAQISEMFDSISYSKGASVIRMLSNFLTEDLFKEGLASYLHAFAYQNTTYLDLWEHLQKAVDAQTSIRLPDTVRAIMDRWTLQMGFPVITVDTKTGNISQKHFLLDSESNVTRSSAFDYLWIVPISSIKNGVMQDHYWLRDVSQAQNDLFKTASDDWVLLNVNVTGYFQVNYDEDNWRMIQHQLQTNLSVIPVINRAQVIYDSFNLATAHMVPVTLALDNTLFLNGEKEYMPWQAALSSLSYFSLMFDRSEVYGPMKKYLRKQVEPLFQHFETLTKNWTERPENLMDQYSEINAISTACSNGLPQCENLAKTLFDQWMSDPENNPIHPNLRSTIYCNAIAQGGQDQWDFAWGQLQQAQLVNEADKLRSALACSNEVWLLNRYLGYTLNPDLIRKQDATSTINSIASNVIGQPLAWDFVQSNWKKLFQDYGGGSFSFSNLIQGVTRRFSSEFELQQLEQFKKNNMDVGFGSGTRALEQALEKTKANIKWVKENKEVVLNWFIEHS
Experimental: as §1, §2

Aminopeptidase = assay: Reactivity of peptidase formulations against synthetic peptides: aminopeptidase A alone; assay type: biochemical; conditions: no carboxypeptidase, Tris-HCl pH 8.0, 37° C. 3 hours, HPLC
Experimental: as §1, §2

[7] = test system: synthetic peptide consisting of 28 amino acids (SEQ ID NO: 28); assay: Production of the intermediate peptides with proteinase from the 28 amino acid synthetic peptide; assay type: biochemical; conditions: enzyme 0.1 μg/ml, 28-mer 10 μg/ml, phosphate buffer pH 6.1, 37° C. 5 hours; HPLC and sequence analysis
Excerpt: A peptide consisting of 28 amino acids and having a sequence identical with a part of casein sequence and containing the sequence Ile-Pro-Pro and Val-Pro-Pro therein was chemically synthesized by the automatic peptide synthesizer model […]. The sequence of the peptide synthesized is as follows: […](SEQ ID NO: 28)
This synthetic peptide was reacted with various commercially available proteinase formulations, seeking for a proteinase capable of producing a peptide containing the sequence Ile-Pro-Pro or Val-Pro-Pro therein but containing no Pro other than these sequences.
That is, 0.1 μg/ml of each enzyme was added to 10 μg/ml of the synthetic peptide (in 100 mM phosphate buffer pH 6.1). The mixture was reacted at 37° C. for 5 hours to obtain a reacted liquid. The reacted liquid was analyzed by the reverse phase high performance liquid chromatography (HPLC). The fractions of the detected peptide peaks were collected and amino acid sequence analysis was performed by the automatic peptide analyzer model PPSQ-10.

[8] = test system: synthetic peptide consisting of the 28 amino acids (SEQ ID NO: 28); assay: Two step reaction of proteinase and fraction 4 on the 28 amino acid synthetic peptide; assay type: biochemical; conditions: proteinase 0.1 μg/ml on 28-mer 10 μg/ml, pH 6.1, 37° C. 5 hours, heat inactivation, then fraction 4, HPLC
Experimental: To 10 μg/ml of the synthetic peptide consisting of the 28 amino acids that is the same as the one used in Experiment 2 (in 100 mM phosphate buffer pH 6.1), each of the commercially available proteinase enzymes for food processing shown in Table 4 was added at 0.1 μg/ml. The mixture was reacted at 37° C. for 5 hours. After finishing the reaction, the reacted liquid was heated at 100° C. for 5 minutes for inactivating the proteinase, and then reacted with the fraction 4 obtained in Experiment 4.

T1 sequence (P80561 46-329): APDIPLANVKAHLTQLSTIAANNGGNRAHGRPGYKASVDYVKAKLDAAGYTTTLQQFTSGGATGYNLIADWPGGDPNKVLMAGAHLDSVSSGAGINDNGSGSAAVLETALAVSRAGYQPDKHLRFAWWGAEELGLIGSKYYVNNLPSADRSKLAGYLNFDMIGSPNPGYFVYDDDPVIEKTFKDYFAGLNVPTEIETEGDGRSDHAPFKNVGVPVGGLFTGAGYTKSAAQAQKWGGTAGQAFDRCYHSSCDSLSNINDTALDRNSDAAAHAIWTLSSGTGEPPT

In the case of Asn Ile Pro Pro Leu (NIPPL), the “Existence of IPP or VPP peaks” value [1] is reported as “IPP”, the “Existence of IPP or VPP peaks” value [2] is reported as “IPP” and the “Existence of IPP or VPP peaks” value [3] is reported as “IPP”. The “Existence of IPP or VPP peaks” value [4] was “IPP”.

In the case of Val Val Pro Pro (VVPP), the “Existence of IPP or VPP peaks” value (Aminipeptidase I) is reported as “VPP”, the “Existence of IPP or VPP peaks” value [5] is reported as “VPP” and the “Existence of IPP or VPP peaks” value [6] is reported as “VPP”. For the same molecule, the “Existence of IPP or VPP peaks” value (Aminopeptidase) was “VPP”.

B1: Papain: proteinase, Papaya Latex, Sigma Chemical Co. (protein, UniProt P00784 134-345, looked up)
Papain: IPEYVDWRQKGAVTPVKNQGSCGSCWAFSAVVTIEGIIKIRTGNLNEYSEQELLDCDRRSYGCNGGYPWSALQLVAQYGIHYRNTYPYEGVQRYCRSREKGPYAAKTDGVRQVQPYNEGALLYSIANQPVSVVLEAAGKDFQLYRGGIFVGPCGNKVDHAVAAVGYGPNYILIKNSWGTGWGENGYIRIKRGTGNSYGVCGLYTSSFYPVKN
B1 was tested, and the “Peptides produced in the reaction mixture” value [7] was “a peptide Val-Pro-Pro-Phe-Leu as the peptide containing the sequence Val-Pro-Pro, and peptides Asn-Ile-Pro-Pro-Leu-Thr and Ile-Pro-Pro-Leu-Thr”, the “Production of the tripeptides Ile-Pro-Pro and Val-Pro-Pro” value [8] was “Yes” and the “Production of the tripeptides Ile-Pro-Pro and Val-Pro-Pro” value ([8]; listed as papain) was “can produce the tripeptides Ile-Pro-Pro and Val-Pro-Pro”.
